Source: article PMC4972647 (Nature structural & molecular biology, 2016)

T1: GST-APPBP1 (human, UniProt Q13564 1-534)
T1 sequence: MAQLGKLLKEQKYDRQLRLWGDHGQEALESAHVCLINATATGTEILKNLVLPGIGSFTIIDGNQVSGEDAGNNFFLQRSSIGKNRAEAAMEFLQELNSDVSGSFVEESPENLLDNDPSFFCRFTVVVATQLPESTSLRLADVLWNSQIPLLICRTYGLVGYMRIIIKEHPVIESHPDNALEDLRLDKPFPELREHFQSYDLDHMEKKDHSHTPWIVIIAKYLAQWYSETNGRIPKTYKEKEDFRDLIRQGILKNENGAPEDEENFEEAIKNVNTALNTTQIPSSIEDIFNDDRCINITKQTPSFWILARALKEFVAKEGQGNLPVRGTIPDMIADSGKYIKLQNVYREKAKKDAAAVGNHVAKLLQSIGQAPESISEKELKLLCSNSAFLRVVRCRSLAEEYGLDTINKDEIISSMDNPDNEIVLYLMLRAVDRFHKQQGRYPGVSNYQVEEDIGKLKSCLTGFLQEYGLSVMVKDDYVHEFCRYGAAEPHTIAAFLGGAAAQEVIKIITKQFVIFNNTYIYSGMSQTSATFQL

B1: ABD (V541-E685) of human GlyRS (domain or fragment)
chain: VREGDEQRTFFSFPAVVAPFKCSVLPLSQNQEFMPFVKELSEALTRHGVSHKVDDSSGSIGRRYARTDEIGVAFGVTIDFDTVNKTPHTATLRDRDSMRQIRAEISELPSIVQDLANGNITWADVEARYPLFEGQETGKKETIEE

What was measured:
Assay in all cases: BLI
[1] = biological target: NEDD8-conjugated Ubc12 (Ubc12(C111S)^N8-His) (human) (UniProt P61081)
[2] = biological target: N-terminal GST-tagged GlyRS (human)
[3] = biological target: T1, GST-APPBP1

| Kd [1] | Kd [2] | also measured | Molecule |
| --- | --- | --- | --- |
| 39.5 nM |  |  | G526R GlyRS (enzyme) |
|  | 4.09 nM |  | NEDD8-conjugated Ubc12 (Ubc12(C111S)^N8-His) (from UniProt P61081;Q15843) (complex) |
| 3.21 nM |  |  | Tag-free wild type human GlyRS (enzyme) |
|  | 126 nM |  | purified recombinant human NEDD8 (from UniProt Q15843 1-76) (natural protein) |
|  | 488 nM |  | purified recombinant human Ubc12 (from UniProt P61081 1-183) (enzyme) |
| 27 nM |  |  | Δ84-93 GlyRS (F84-L93 replaced by GGG) (from UniProt P41250-2 94-685) (enzyme) |
| 4.32 nM |  |  | ΔInsertion1 GlyRS (F147-F224 replaced by GSGSGG) (from UniProt P41250-2 225-685) (enzyme) |
|  |  | binding result [3]: binds | B1 |
